Reference: patent US20020193575A1 (published 2002)

Target: T1, recombinant E. coli human IL4 (non-glycosylated) (human, UniProt P05112 25-153)
T1 sequence (looked up): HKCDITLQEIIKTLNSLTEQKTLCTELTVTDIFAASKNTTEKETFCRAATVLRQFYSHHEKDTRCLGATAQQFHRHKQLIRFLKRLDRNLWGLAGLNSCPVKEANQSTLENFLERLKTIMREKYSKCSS
Assay: cell-based or functional assay

B1: humanized 3B9 (IgG1) (antibody, V domains shown)
VH: QVTLRESGPALVKPTQTLTLTCTFSGFSLSTSGMGVSWIRQPPGKGLEWLAHIYWDDDKRYNPSLKSRLTISKDTSRNQVVLTMTNMDPVDTATYYCARRETVFYWYFDVWGRGTPVTVSS
VL: IVMTQSPDSLAVSLGERATINCKASQSVDYDGDSYMNWYQQKPGQPPKLLIYAASNLESGVPDRFSGSGSGTDFTLTISSLQAEDVAVYYCQQSNEDPPRFGGGTKVEIKR
B cell proliferation (3H thymidine), IC50: 47 pM
